By EC50 is commonly meant the concentration that produces a half-maximal response. One may read the Kd as the concentration at which binding is half-saturated.

Positions count from the first letter of the chain named.

The subject of series [1] is HEK-cyno-5T4 cells. Description: Cell binding (flow cytometry), HEK-cyno-5T4 cells. The format is cell-based. As for the experimental part: Antibodies that were selected for binding to 5T4, for example, such as those described in Example 2, were evaluated for binding to cells that express 5T4. Cells were harvested at 70-90% confluence on the day of the assay. In a v-bottom 96-well plate (Costar 3897), 100,000 cells per well were incubated with 50 μL per well 8- or 12-point antibody dilution series for 30 minutes at +4° C. After incubation, cells were washed once with PBS by centrifugation at 200×g for 5 minutes. Cells were then incubated with 50 μL per well of Alexa Fluor 488 Goat anti-human IgG Fab (Jackson Immuno Research 109-547-003) at 1:100 dilution for 30 minutes at +4° C. Cells were washed twice with PBS by centrifugation at 200×g for 5 minutes and were acquired on iQue Screener Plus (Sartorius). Mean fluorescence intensities of BL1 (Alexa-Fluor-488) channel were plotted against antibody concentrations to generate a dose response curve and EC50 values.
On the technique in general: A flow cytometer gives signals particle by particle.

Series [2] is described as follows: Standup monolayer adsorption chromatography (SMAC) developability. Format: physicochemical. The settings on record: 1 mg/mL in Dulbecco's PBS pH 7.4. Here is the method: Antibodies that were selected for binding to 5T4, such as those described in Examples 2 and 3, were tested by various methods to assess developability. For example, various chromatographic methods, including size exclusion chromatography (SEC), hydrophobic interaction chromatography (HIC), and standup monolayer adsorption chromatography (SMAC) were employed to assess factors, such as monomer percentage, solubility, and antibody aggregation or precipitation.
Standup monolayer adsorption chromatography (SMAC) analysis was performed using a 4.6 mm ID×300 mm Zenix SEC 300 column (Sepax Technologies, PN 213300P-4630) with a 4.6 mm×50 mm guard column (PN 213300P-4605) on an Agilent 1100 HPLC. Antibodies were normalized to 1 mg/mL concentration in Dulbecco's PBS (pH 7.4, without Ca^2+/Mg^2+) and clarified via centrifugation to pellet particulates while still retaining soluble aggregates. The mobile phase buffer was Dulbecco's PBS (pH 7.4, without Ca^2+/Mg^2+) at 2× concentration (diluted from 10× stock concentration). For each sample, 10 μL was loaded and isocratically eluted at 0.4 mL/minute over 32 minutes at ambient temperature. Absorbance was monitored at 280 nm. Sample retention time was calculated and compared to a set of standard controls to identify antibodies with increased retention time (increased propensity to form aggregates and/or increased hydrophobic/electrostatic interactions) as the column stationary phase along with mobile phase selection promotes secondary interactions in addition to molecular sizing. Data analysis was performed using Agilent ChemStation B.04.03 SP1.

Series [3] deals with T1, unconjugated human TPBG/5T4 protein with a c-terminal polyhistidine and Avi tag (AcroBiosystems Cat. No. … (human, UniProt Q13641 32-355)).
T1 construct: Bought protein; also called Acro TPGH52E5; Acro Catalog No. TPGH52E; not shown: C-terminal polyhistidine and Avi tag
T1 sequence: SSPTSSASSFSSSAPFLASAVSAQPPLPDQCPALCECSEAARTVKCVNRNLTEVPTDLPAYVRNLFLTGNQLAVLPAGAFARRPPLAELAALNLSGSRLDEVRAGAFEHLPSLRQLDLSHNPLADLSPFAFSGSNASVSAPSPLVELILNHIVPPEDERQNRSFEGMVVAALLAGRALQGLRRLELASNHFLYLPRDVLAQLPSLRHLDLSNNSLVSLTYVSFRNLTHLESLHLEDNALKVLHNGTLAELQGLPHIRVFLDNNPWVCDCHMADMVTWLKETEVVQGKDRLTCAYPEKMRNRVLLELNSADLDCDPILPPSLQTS
Description: ELISA on coated human 5T4 His-Avi (Acro TPG-H52E5); antibody condition: PBS Time 0. Here is the method:
(§1) A. Normal Binding Unconjugated antibodies were tested for their ability to bind to human 5T4 (hu5T4) using ELISA. On Day 1, unconjugated human TPBG/5T4 protein with a c-terminal polyhistidine and Avi (AVITAG™) tag (AcroBiosystems (Newark, DE, USA), Cat. No. TPG-H52E5) was diluted 2 μg/mL in PBS, mixed thoroughly, plated 100 μL per well in a 96-well plate (Nunc MAXISORP®) and incubated overnight at 4° C.
(§2) 3. Oxidative Stress. Several unconjugated antibodies were tested for their ability to bind to 5T4 using ELISA in an oxidative environment. Solutions of 1 mg/mL to 10 mg/mL of antibody in 20 mM citrate/50 mM NaCl at a pH of 5.5 were prepared and stored at 37° C. for 1 to 2 weeks.
In general terms: In an ELISA, binding on a coated surface is turned into a signal by an enzyme label.

Series [4] addresses T1, unconjugated human TPBG/5T4 protein …. Description: ELISA on coated human 5T4 His-Avi (Acro TPG-H52E5); antibody condition: pH 8.5 Day 1. Here is the method: as §1
Series [5] has the same target. Description: ELISA on coated human 5T4 His-Avi (Acro TPG-H52E5); antibody condition: PBS + H2O2 time 0. As for the experimental part:
as §1, §2

Series [6] has as its target T2, human 5T4 produced internally (Lot 20-019-62) (human, UniProt Q13641 32-355).
T2 construct: 'also produced separately'; also called Internal (Lot 20-019-62)
T2 sequence: T1 sequence
Description: Octet, antibody on AHC sensors, human 5T4 in solution (monovalent); Internal Lot 20-019-62. As for the experimental part:
Monovalent binding assays were employed to determine the relative affinity of each 5T4 binder obtained by the phage display in Example 1 to human 5T4. Human 5T4 was purchased from Acro Biosystems (Acro Catalog No. TPGH52E) and also produced separately. The monovalent interaction of binders to human 5T4 was monitored using an Octet (Pall ForteBio) instrument. For these assays, 36 nM antibody was immobilized on anti-human Fc (AHC) sensors in 1× kinetic buffer (ForteBio). The sensors were then dipped in wells containing a 3× serial dilution of human 5T4 ranging from 1 μM to 1.37 nM. The association was allowed to reach equilibrium. Sensors were then moved to wells containing only 1× kinetic buffer and allowed to dissociate to equilibrium. Association and dissociation rates were measured and from these, monovalent KDS were calculated using the onboard analysis software (ForteBio).
(In general: BLI is a label-free optical method that tracks binding on a fibre tip over time.)

B1: mAbA4: 5T4 antibody comprising VH of SEQ ID NO:25 and VL of SEQ ID NO:26 (antibody, V domains shown)
VH: EVQLVESGGGLVQPGGSLRLSCAASGFTFSRYYIHWVRQAPGKGLEWVAFISPGGSYTYYADSVKGRFTISADTSKNTAYLQMNSLRAEDTAVYYCAREYYSMGVLDYWGQGTLVTVSS
VL: DIQMTQSPSSLSASVGDRVTITCRASQSVSSAVAWYQQKPGKAPKLLIYSASSLYSGVPSRFSGSRSGTDFTLTISSLQPEDFATYYCQQAYESPYTFGQGTKVEIK
modifications: Antibody mAbA4 VH Sequence; Antibody mAbA4 VL Sequence
Regarding B1, the “binding to HEK-cyno-5T4 cells” value in series [1] is on record as “binding”. Further, the “developability based on SMAC analysis” value in series [2] is “strong developability”.

B2: mAbA15: 5T4 antibody comprising VH of SEQ ID NO:44 and VL of SEQ ID NO:45 (antibody, V domains shown)
VH: EVQLVESGGGLVQPGGSLRLSCAASGFTFSSYYIHWVRQAPGKGLEWVAYITSTGSYTEYADSVKGRFTISADTSKNTAYLQMNSLRAEDTAVYYCARYDRSTRYSGLDYWGQGTLVTVSS
VL: B1 VL with E93A, S94T, Y96V
modifications: Antibody mAbA15 VH Sequence; Antibody mAbA15 VL Sequence
In the case of B2, the “binding to HEK-cyno-5T4 cells” value in series [1] is “binding”. Also, the “developability based on SMAC analysis” value in series [2] was “strong developability”.

B3: mAbA17 (antibody, V domains shown)
VH: EVQLVESGGGLVQPGGSLRLSCAASGFTFSRYWIHWVRQAPGKGLEWVAAIFPYSGSTLYADSVKGRFTISADTSKNTAYLQMNSLRAEDTAVYYCARSPSRSILPSGLDYWGQGTLVTVSS
VL: DIQMTQSPSSLSASVGDRVTITCRASQSVSSAVAWYQQKPGKAPKLLIYSASSLYSGVPSRFSGSRSGTDFTLTISSLQPEDFATYYCQQGDGSPYTFGQGTKVEIKR
notes: also called Antibody mAbA17
With B3, the EC50 in series [3] worked out at 198 pM; in series [4], 174 pM; in series [5], 188 pM. The molecule also gave a Kd in series [6] of 9340 pM.

B4: mAbA4 (antibody, V domains shown)
VH: B1 VH
VL: B3 VL with G91A, D92Y, G93E
notes: also called Antibody mAbA4
For the molecule B4, the figures for the EC50 in series [3], in series [4] and in series [5] were 182 pM, 127 pM and 225 pM, respectively. This molecule yielded a Kd in series [6] of 83000 pM.

B5: mAbA15 (antibody, V domains shown)
VH: B2 VH
VL: B3 VL with G91A, D92Y, G93A, S94T, Y96V
notes: also called Antibody mAbA15
With B5, the EC50 in series [3] worked out at 229 pM; in series [4] it was 128 pM; in series [5], 191 pM. For the same molecule, in series [6], the Kd is 10400 pM.

B6: mAbA17: 5T4 antibody comprising VH of SEQ ID NO:62 and VL of SEQ ID NO:63 (antibody, V domains shown)
VH: B3 VH
VL: B1 VL with A91G, Y92D, E93G
modifications: Antibody mAbA17 VH Sequence; Antibody mAbA17 VL Sequence
Regarding B6, the “binding to HEK-cyno-5T4 cells” value in series [1] is reported as “binding”. For the same molecule, the “developability based on SMAC analysis” value in series [2] is “strong developability”.

These data come from patent publication US20250295803A1, “5T4 ANTIBODY-DRUG CONJUGATES AND USES THEREOF” (EXELIXIS, INC., priority 2022, published 2025).
